The values that follow come from patent publication US7169567 (GENERAL HOSPITAL, dated 2007).

Where no end group is shown, it is not given here.

Holding throughout (test): cell-based or functional assay
Assay [1] concerns the target T1, truncated rat PTH-1 receptor rΔNt (rat, UniProt P25961 182-591).
T1 sequence: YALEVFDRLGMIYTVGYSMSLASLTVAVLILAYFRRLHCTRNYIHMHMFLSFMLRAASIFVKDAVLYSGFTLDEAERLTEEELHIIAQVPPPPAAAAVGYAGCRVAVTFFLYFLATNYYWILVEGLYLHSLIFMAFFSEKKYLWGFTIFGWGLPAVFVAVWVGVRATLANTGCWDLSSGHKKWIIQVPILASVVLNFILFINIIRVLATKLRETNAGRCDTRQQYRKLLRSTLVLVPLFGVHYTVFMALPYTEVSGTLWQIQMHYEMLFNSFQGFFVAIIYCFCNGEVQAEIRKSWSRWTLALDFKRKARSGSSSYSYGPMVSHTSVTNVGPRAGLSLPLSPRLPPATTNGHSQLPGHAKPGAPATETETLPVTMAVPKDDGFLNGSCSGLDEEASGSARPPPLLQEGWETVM

For the next assay, the target named is T2, human PTH-1 receptor (human, UniProt Q03431 27-593).
T2 sequence (looked up): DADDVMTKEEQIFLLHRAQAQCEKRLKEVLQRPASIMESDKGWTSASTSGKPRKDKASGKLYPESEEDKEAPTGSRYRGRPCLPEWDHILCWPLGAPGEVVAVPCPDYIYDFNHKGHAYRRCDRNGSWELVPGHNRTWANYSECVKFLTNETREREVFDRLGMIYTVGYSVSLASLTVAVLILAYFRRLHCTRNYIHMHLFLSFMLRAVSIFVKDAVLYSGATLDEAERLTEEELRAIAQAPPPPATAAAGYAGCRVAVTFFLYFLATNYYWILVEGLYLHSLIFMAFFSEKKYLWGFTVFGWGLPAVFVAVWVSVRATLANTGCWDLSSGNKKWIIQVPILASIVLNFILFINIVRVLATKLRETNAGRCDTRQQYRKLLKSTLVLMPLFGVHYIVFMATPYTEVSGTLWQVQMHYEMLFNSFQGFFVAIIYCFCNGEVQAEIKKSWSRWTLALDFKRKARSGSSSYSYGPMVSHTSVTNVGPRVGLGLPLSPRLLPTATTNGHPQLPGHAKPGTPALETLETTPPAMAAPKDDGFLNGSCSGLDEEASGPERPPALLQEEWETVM

The target of assay [2] is intact rat PTH-1 receptor with HA epitope tag (rWT-HA) (rat, UniProt P25961 23-92; P25961 27-591).
Chain of intact rat PTH-1 receptor with HA epitope tag (rWT-HA) (P25961 whole entry, one chain of several): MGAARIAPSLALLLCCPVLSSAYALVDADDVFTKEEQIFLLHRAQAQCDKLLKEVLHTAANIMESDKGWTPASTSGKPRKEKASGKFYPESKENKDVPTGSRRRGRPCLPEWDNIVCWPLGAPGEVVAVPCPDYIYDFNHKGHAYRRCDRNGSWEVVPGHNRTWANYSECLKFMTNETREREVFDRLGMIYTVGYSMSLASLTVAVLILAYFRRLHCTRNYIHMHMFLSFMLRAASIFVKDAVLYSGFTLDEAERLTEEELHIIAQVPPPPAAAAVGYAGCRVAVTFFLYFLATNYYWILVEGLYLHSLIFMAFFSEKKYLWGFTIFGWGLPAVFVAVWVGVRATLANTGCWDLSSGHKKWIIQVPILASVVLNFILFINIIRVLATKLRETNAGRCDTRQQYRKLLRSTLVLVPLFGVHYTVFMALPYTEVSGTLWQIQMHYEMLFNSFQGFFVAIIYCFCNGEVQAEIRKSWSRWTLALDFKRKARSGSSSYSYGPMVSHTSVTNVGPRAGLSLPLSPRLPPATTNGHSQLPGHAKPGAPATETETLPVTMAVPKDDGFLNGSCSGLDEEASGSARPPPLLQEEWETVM

B1: rat PTH(1-14) (peptide, UniProt P04089 32-45, looked up)
peptide: AVSEIQLMHNLGKH-NH2
B1: the “cAMP potency relative to PTH(1-34)” value in assay [1] was 2 orders of magnitude. In addition, in the assay with human PTH-1 receptor, the “cAMP formation over the basal level” value is roughly 20 fold and the “cAMP potency relative to PTH(1-34)” value was ~5 orders of magnitude. Moreover, in assay [2], the cAMP formation is 15 fold.
